In paper PMC3985441 (Bioscience Reports, 2014):

Target: T1, p110αEE^E545K/p85α complex (E545K oncogenic mutant PI3Kα) (human, UniProt P42336 1-1068; P27986 1-724, E545K)
T1 construct: p110α catalytic subunit of Class 1A PI3K, human, full length, somatic cancer mutation E545K in the helical domain; p85α regulatory subunit of Class 1A PI3K, human, full length; 1:1 heterodimer; also called E545K mutant; p110α^E545K/p85α; not shown: EE tag (glu-tag, 6 amino acids), C-terminal, kept; copies: 1 + 1
Test: pull-down; GST fusion proteins (1 μg) on glutathione agarose, PI3Kα complexes (100–3200 ng) in solution; TBS with 10% (v/v) FBS, 1 h at 4°C; washes in TBS with 0.1% Tween 20; bound PI3Kα detected by immunoblot for p85α
Conditions: both partners purified

T1 sequence (P42336 whole entry E545K, chain 1 of 2, the tested form may be a part): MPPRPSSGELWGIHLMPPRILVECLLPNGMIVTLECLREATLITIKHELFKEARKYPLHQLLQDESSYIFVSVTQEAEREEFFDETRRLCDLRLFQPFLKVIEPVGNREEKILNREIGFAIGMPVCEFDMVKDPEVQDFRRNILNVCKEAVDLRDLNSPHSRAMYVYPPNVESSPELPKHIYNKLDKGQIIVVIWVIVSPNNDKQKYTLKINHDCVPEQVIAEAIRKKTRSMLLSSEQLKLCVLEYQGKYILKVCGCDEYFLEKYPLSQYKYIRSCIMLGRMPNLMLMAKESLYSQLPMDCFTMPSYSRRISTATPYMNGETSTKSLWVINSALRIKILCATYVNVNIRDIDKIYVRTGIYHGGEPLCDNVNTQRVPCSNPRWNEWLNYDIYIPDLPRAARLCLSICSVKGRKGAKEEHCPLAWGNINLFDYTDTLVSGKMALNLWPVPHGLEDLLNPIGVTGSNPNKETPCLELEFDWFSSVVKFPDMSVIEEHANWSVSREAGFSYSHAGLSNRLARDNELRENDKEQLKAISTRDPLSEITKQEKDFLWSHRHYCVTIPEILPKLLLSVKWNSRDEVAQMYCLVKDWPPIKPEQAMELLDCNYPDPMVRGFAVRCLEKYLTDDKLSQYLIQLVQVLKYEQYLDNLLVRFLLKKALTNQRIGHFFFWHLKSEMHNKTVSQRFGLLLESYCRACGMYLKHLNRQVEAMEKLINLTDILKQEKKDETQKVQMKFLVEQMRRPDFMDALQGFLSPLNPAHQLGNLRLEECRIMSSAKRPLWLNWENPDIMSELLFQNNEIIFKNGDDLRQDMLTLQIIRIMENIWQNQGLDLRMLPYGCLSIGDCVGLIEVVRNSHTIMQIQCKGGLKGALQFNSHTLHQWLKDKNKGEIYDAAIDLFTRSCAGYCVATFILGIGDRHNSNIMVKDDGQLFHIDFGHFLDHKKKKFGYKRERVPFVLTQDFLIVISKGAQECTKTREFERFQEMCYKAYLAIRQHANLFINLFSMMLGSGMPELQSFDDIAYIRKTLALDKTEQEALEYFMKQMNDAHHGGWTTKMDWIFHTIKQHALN
T1 sequence (P27986 whole entry, chain 2 of 2, the tested form may be a part): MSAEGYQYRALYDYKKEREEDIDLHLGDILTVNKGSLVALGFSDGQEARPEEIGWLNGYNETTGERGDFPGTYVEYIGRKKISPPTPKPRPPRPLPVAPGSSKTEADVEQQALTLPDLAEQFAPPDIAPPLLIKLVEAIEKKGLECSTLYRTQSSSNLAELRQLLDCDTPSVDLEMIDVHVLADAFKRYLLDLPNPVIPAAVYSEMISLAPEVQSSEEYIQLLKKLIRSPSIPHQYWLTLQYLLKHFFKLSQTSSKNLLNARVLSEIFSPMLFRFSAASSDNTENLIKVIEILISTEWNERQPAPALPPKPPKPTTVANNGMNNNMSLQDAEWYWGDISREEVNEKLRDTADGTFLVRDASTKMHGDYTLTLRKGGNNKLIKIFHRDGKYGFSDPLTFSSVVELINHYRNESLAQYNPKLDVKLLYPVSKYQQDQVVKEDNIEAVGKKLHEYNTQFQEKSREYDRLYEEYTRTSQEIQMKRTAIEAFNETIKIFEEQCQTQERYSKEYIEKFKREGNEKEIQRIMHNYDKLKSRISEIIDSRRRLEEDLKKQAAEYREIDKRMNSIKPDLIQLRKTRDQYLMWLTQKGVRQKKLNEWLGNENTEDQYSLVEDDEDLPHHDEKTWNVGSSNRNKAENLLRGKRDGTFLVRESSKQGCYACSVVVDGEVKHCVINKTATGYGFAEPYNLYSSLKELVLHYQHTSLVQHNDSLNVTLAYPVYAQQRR

B1: GST-V12 Cdc42 (constitutively active Cdc42Hs) (natural protein)
chain: not shown
notes: Cdc42Hs, human, constitutively active (V12) form; Plasmid courtesy of Professor Anne Ridley; also called GST-Cdc42; source: E. coli BL21 (DE3), purified (glutathione agarose)
- binding result: binds
